# Assay results taken from the supplement of paper PMC9170038.
# System: K4 kissing-loop RNA reporter
# Assay: apparent KD of K4 kissing-loop reporter; higher = weaker reporter binding
# Settings: Eterna round: R107; input ligand: none
# Experimental: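 RNA-MaP round R107: designed RNA switches with theophylline, tryptophan, arginine or FMN aptamers are transcribed on-chip within common flanks. They are titrated with a labelled K4 kissing-loop RNA reporter in RNA-MaP buffer (100 mM Tris pH 7.5, 80 mM KCl, 4 mM MgCl2), without ligand or with the indicated ligand. Median apparent KD per design.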
# 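Note: bound reporter read as fluorescence of individual clusters on recovered sequencing chips by microscopy, with normalized cluster intensities fitted with a binding model.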
row,Sequence,apparent KD of K4 kissing-loop reporter [µM]
1,AGAGUUAUGCGAGGAUAUGCAGUUAGUACUCAAAGAGUACUAACGCAGAGUGAUGUUCUGUGAAAUGCAGAAGGUGCAUAACUCA [Omei KL FMN B SS B v5],0.33
2,GGGCAAGUGAGUGAUGUUCGAUGAUGCUUAAAGGAUAUGUAGGAAUACAGAAGGUUAUAUUCCCUGACAUUAGAUCUUUACAGGG [theeternabot_exclusion_KL_FMN_A_44],0.105
3,GACCUAAGCUAUGAUACCAGUCUGGCACGAAGAAGUGAUGUUUCCCAGCGUUUGUCACUUGACCCUUGGCAGCAUGCGAUCAGCU [theeternabot_sameState_KL_Theo_B_29],0.151
4,CGAGUGAUGUUCGUUCGUUUAUUUCGGUGACAGGAUAUGCGGAAACGCAGAAGGGUCACCUUUGAGUUACCGGAAUUAACGUUAU [Ex FMN A 29],0.623
5,CGAAGAUUCCAUGAUACCAGCCUCGGCCCAUAGAGUGAUGUUCUAGUCGGGUCCGUUCGCGGCCCUUGGCAGCAUUUCACCACGA [theeternabot_sameState_KL_Theo_B_44],0.178
6,UGUCAUUGGUCGGCCGCCACUAUAUAAAAGAGUGAUGUUCUAAAGACGGAUCGAAAGAUCUGUCAUAGGACCGGGACCGAUGACU [TrypBS 20 #SwitchBubble #StaticStem],0.308
7,UCCCUAAAGGGAGAUACCAGUAAAGAAGUGACGGAGUGGAGUGAUGUUCCAUAUUACUGAUACCCUUGGCAGCUCUUUUGAUUAC [theeternabot_sameState_KL_Theo_B_47],0.113
8,AACUGUCAAGGACAACAUUACUGAGGUGAUACCAGCAUCGAAAGAUGCCCUUGGCAGCACCGACUUGCAGUGAUGUUGCAAGUAA [BrourdMod 11 - Jieux - Exclusion - Theophylline A],0.249
9,UUUUAAUGCAGUGAUGUUGCUAAUAAAACAGAGGAUAUGCAUGGAAGCAGAAGGCUGAAAUAUUAUACUUUAAUAAAUUAUAUUU [JR_SSFMNA_Sub010],0.0788
10,AUUCUUUUUUUGAUGUUUUUUGUAUAAUGGCAGGAUAUCGUAGAAGCGAGAAGGGCUUUUAUGCGUUAUGAGUGAUGUUUGUAGG [szeewvmullin],0.261
11,GCUAUGGUAGGAAGGAGCGCUUAUUUAUUAAUAAGAGUGAUGUUCGAUAGUAGAUAUUUAUAGCAGGUAGGUCGCCUACUAUAGC [Arginine B K4 12],0.167
12,UUGCUUCUACUAGGAUAUCAUCAGUCAUGUUCAAUGACACUCGAGUGAUGUUCGAUAGAAGCGAGAUGAGAAGGAGUACAAGCAG [FMB B SS t3],0.159
13,GAUUCUGUUCGAAAGAACGGAAUCUCGGAAGGAGCGAGAGAAAUCUCAGGUAGGUCGCCGAAUUUUUGAUAGUGAUGUUAUCAUU [Arginine A K4 3],0.441
14,AAGCAGUCACUCGUAACCAUCGAAGAUGGUCGAGGACCGGUACGGCCGCCACUCGGAGUGAUGUUCCGAAGACUGCAAAAUAAAA [#SwitchBubble 12],0.299
15,AAAUGUUUGUAUUUGAACAAUUUCCUUAGAGAGGAUAUUGGUAAUACAAGAAGGCUCUGAUGGGAGUGAUGUUCCCAUAACGCGG [Exclusion FMN A GF14],0.119
16,ACGUGCACUAGUGAUGUUGGAAAAUAGGAAGGAGCGGGCGAAAGCCCAGGUAGGUCGCCUAAUAGCACGAGCCACGAAAGUGGCA,0.645
17,AAUUUAUUAACUGAUACCAGACUUAAUUAAUUGUAAAUUACUAGUGAUGUUAGUGAUUCUGUCCCUUGGCAGCAGUAUUUAUUAA [JR_ExcTheophyB_Sub011],0.113
18,GCCGUACGCAUGGAUACCAGCAUCGACUCAUAUACAGUGAUGUUGUGUAAUGACCUCAUUUGCCCUUGGCAGCCAUGCGUACGGC,0.62
19,AGUACGGUGCCGUUCAGAUCAACGUAUGAUACCAGCUCGUAUAUUAGCCCUUGGCAGCAUCCGAGUGAUGUUCGGAUUGUGCCAC [theeternabot_exclusion_KL_Theo_A_45],0.102
20,CGCGCCCAGCCGGAUACCAGUGACCCGCUGGGAACCGCGGGCCCAGAGUGAUGUUCGGGACACCCUUGGCAGCCGCCUGGGCGGG [#2 Same State - Theophylline B Attempt #16 (HarryS)],0.597
21,AAAUUUAAUAUAUUUAAUUAAUUAUGUGAUACCAGACAUUAAUAAGUCCCUUGGCAGCACAAUGCAGUGAUGUUGCAUAUAAUAA [JR_SSTheophyA_Sub011],0.0735

# Same assay, conditions: Eterna round: R107; input ligand: theophylline 20 uM
row,Sequence,apparent KD of K4 kissing-loop reporter [µM]
1,GGAGGGAUCUCGGCCGCCACUCAUAAGAAAUGGGCCUCAGAGAUAUAGUGAUGUUAUGUAAAGAAGAGGACCGGGAGAAAGAAGG [ExTryptoB.Db],0.135
2,UAUAUAGUGACGGCCGCCACUAUUGUGAUUUAAUUGUUAGAGUGAUGUUUUGUUGUUUGAUUUUGUAGGACCGGGUUAUAUGUUA [vnbbwzmullin],0.794
3,GUAUGUGGAAACACGUACUUAUAUCCUAAGCAGGAUAUGCGGAAACGCAGAAGGGCUACCAACGAGUUUACCCAGUGAUGUUGGG [Ex FMN A 14],0.288
4,UACAUAUUAUUAUUUCUACAUUUAUUUAGUCAGGAUAUCGAUUAAACGAGAAGGGACAAUAUCAAGUGAUGUUUGAUAAUUCAAA [JR_SSFMNA_Sub022],0.118
5,GUGGAAUUAUGAAAGUGGUUUUAUAAGGAAGGAGCGGCCGAAAGGCCAGGUAGGUCGCCUAUUGACAGUGAUGUUGUUAUAUGGA [#13],0.168
